Measurements: patent US20210032312A1 (Janssen / Centocor, published 2021)
Positions count from the first letter of the chain named.

B1: P283HR7P1368_H8 (designed binder)
chain: LPAPKNLVVSRVTEDSARLSWTAPDAAFDSFGITYLDPRNGEAISLNVPGSERSYDLTGLKPGTEYWVVIIGVKGGINSYPLGASFTT
notes: FN3 domain
B2: P283BR9P1363_F2 (designed binder)
chain: LPAPKNLVVSRVTEDSARLSWYRPDNRAGAFDSFLIQYQESEKVGEAIVLTVPGSERSYDLTGLKPGTEYTVSIYGVDVKYDIDSRPISSNPLSAIFTT
notes: FN3 domain
B3: P283HR7P1368_F6 (designed binder)
chain: LPAPKNLVVSRVTEDSARLSWTAPDAAFDSFGIGYIEWVHRGEAISLHVPGSERSYDLTGLKPGTEYVVAIVGVKGGEPSTPLGAPFTT
notes: FN3 domain
B4: P283ER9P1365_A1 (designed binder)
chain: B3 chain with G34A, I36V, V39W, H48P, V68N, A70I, V72T, E78I, T81H, P86I
notes: FN3 domain
B5: P283HR7P1368_G10 (designed binder)
chain: B3 chain with G34A, I36V, V39W, H48P, V68W, A70T, V72L, E78I, P79I, P86S
notes: FN3 domain
B6: P283DR9P1364_H9 (designed binder)
chain: LPAPKNLVVSRVTEDSARLSWTAPDAAFDSFSISYIEYPEIPGGEAIVLTVPGSERSYDLTGLKPGTEYWVPIWGVKGGIQSWPLSAIFTT
notes: FN3 domain
B7: P283DR9P1364_F6 (designed binder)
chain: LPAPKNLVVSRVTEDSARLSWTAPDAAFDSFTIAYPEREQDKWGEAIVLTVPGSERSYDLTGLKPGTEYWVIIQGVKGGRPSTPLSAILTT
notes: FN3 domain
B8: P283HR7P1368_G1 (designed binder)
chain: LPAPKNLVVSRVTEDSARLSWTAPDAAFDSFLITYWEIEPEGEAIFLGVPGSERSYDLTGLKPGTEYRVQINGVKGGTISYPLFAGFTT
notes: FN3 domain
B9: P283DR9P1364_F8 (designed binder)
chain: LPAPKNLVVSRVTEDSARLSWTAPDAAFDSFAIAYPEWPPGEAIVLTVPGSERSYDLTGLKPGTEYFVIIYGVKGGWTSPPLSAIFTT
notes: FN3 domain
B10: P283HR7P1368_D2 (designed binder)
chain: LPAPKNLVVSRVTEDSARLSWTAPDAAFNSFGIGYAEPAVTGEAISLSVPGSERSYDLTGLKPGTEYWVVIIGVKGGINSYPLGASFTT
notes: FN3 domain
B11: P283BR9P1363_G7 (designed binder)
chain: LPAPKNLVVSRVTEDSARLSWSAKKFPRHFDSFLIQYQESEKVGEAIVLTVPGSERSYDLTGLKPGTEYTVSIYGVDVKWEGNRPVASNPLSAIFTT
notes: FN3 domain
B12: P283BR9P1363_G2 (designed binder)
chain: B11 chain with S22P, A23K, K24N, K25Q, F26T, P27N
notes: FN3 domain
B13: P283BR9P1363_F4 (designed binder)
chain: B11 chain with S22E, A23R, K24I, K25V, F26Q, P27T, R28P
notes: FN3 domain
B14: P283BR9P1363_E6 (designed binder)
chain: B11 chain with S22Y, K24R, P27I, R28S, H29P
notes: FN3 domain
B15: P283HR7P1368_D4 (designed binder)
chain: LPAPKNLVVSRVTEDSARLSWTAPDAAFDSFAIWCVEPIPEGEAIPLFVPGSERSYDLTGLKPGTEYRVGIRGVKGGTFSSPLAAPFTT
notes: FN3 domain
B16: P283BR9P1363_F6 (designed binder)
chain: LPAPKNLVVSRVTEDSARLSWPEEAVTATSFDSFLIQYQESEKVGEAIVLTVPGSERSYDLTGLKPGTEYTVSIYGVDVKWEGNRPVASNPLSAIFTT
notes: FN3 domain
B17: P283BR9P1363_G5 (designed binder)
chain: B16 chain with P22Y, E23R, E24A, A25T, V26T, T27P, T29P, S30H
notes: FN3 domain
B18: CD8S396 (designed binder)
chain: LPAPKNLVVSRVTEDSARLSWTAPDAAFDSFYITYPEWPDPGGEAIVLTVPGSERSYDLTGLKPGTEYFVVIYGVKGGEIYSPLSAIFTT
notes: W32Y mutant of P282DR9P1359_C5; the entry holds the mutation
B19: CD8S400 (designed binder)
chain: B18 chain with Y32W, W38L
notes: W38L mutant of P282DR9P1359_C5; the entry holds the mutation
B20: CD8S399 (designed binder)
chain: B18 chain with Y32W, W38Y
notes: W38Y mutant of P282DR9P1359_C5; the entry holds the mutation
B21: CD8S397 (designed binder)
chain: B18 chain with Y32Q
notes: W32Q mutant of P282DR9P1359_C5; the entry holds the mutation
B22: CD8S398 (designed binder)
chain: B18 chain with Y32S
notes: W32S mutant of P282DR9P1359_C5; the entry holds the mutation
B23: P283ER9P1365_E2 (designed binder)
chain: LPAPKNLVVSRVTEDSARLSWTAPDAAFDSFYIPYRESEFRGEAIALPVPGSERSYDLTGLKPGTKYRVIIIGVKGGEFSQPLAAIFTT
notes: FN3 domain
B24: P283ER9P1365_H3 (designed binder)
chain: B23 chain with A84S
notes: FN3 domain
B25: P283ER9P1365_C1 (designed binder)
chain: B23 chain with R36W, F40V, R41Y, P50T, K66E, R68Q, I70S, E78V, F79Y
notes: FN3 domain
B26: P283ER9P1365_A7 (designed binder)
chain: B23 chain with R36W, F40V, R41Y, K66E, R68Q, I70S, E78V, F79Y
notes: FN3 domain
B27: P283ER9P1365_F4 (designed binder)
chain: B23 chain with R68S, A84G
notes: FN3 domain
B28: P283HR7P1368_F10 (designed binder)
chain: B23 chain with A84G
notes: FN3 domain
B29: P283ER9P1365_G1 (designed binder)
chain: B23 chain with P48S, A84G
notes: FN3 domain

How the values were obtained:
[1] = biological target: T1, cynomolgus monkey CD8 alpha on primary cynomolgus CD8+ T cells (cynomolgus monkey, UniProt P01732 23-235 (human entry)); assay: flow cytometry, cyno CD8+ T cells
T1 construct: also called Cyno CD8alpha; cyno CD8A
T1 sequence (P01732 other isoform, or with tags, fused parts or gaps limits assumed): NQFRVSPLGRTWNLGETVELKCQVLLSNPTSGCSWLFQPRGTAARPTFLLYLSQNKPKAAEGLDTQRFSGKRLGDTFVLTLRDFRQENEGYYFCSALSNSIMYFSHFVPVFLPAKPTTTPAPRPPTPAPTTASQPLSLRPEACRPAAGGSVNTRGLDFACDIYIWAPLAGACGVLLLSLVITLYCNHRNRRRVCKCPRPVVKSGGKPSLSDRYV

[2] = biological target: T2, human CD8 alpha (CD8A) on primary human CD8+ T cells (human, UniProt P01732 22-235); assay: flow cytometry, human CD8+ T cells
T2 construct: whole, on cells; also called hCD8A
T2 sequence (P01732 22-235): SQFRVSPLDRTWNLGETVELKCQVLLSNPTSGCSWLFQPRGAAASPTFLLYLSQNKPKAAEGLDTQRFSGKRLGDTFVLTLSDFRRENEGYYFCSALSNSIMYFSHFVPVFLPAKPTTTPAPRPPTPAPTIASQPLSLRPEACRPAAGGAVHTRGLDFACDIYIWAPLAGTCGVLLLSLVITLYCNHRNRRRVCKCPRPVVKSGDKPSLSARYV

human CD8A-Fc (in house) = biological target: T3, human CD8A-Fc (in house) (human, UniProt P01732 22-182, limits assumed); assay: SPR (ProteOn), captured hCD8A-Fc
T3 construct: captured by goat anti-human Fc on the ProteOn chip; also called hCD8A-Fc; recombinant human CD8 alpha; not shown: linker/tag and Fc of human IgG1
T3 sequence (P01732 22-182 limits assumed): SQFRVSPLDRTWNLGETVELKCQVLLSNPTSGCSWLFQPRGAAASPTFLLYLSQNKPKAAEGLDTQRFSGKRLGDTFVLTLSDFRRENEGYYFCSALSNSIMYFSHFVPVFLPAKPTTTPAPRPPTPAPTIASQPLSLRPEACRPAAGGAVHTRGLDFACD

[3] = biological target: T4, human CD8A-Fc (recombinant human CD8 alpha fused to Fc fragment of human IgG1) (human, UniProt P01732 22-182, limits assumed); assay: SPR, dissociation rate on recombinant CD8 alpha
T4 construct: SPR ligand, captured by goat anti-human Fc; also called hCD8A-Fc; recombinant CD8 alpha; not shown: linker with flag (and polyhistidine) tag and Fc fragment of human IgG1; depends on which of the two constructs was used
T4 sequence (P01732 22-182 limits assumed): as above

Binder | Cyno T-cell Binding 0.2 uM (MFI) [1] [MFI] | Cyno T-cell Binding 2 uM (MFI) [1] [MFI] | Human T-cell Binding 0.2 uM (MFI) [2] [MFI] | Human T-cell Binding 2 uM (MFI) [2] [MFI] | koff (human CD8A-Fc (in house)) [s⁻¹] | koff [3] [s⁻¹]
B1 | 4890 | 35900 | 1610 | 22800 | 0.000763 | 
B2 | 5280 | 33300 | 3270 | 14500 | 0.000288 | 
B3 | 3540 | 20600 | 3510 | 14300 | 0.00018 | 
B4 | 1360 | 9680 | 3860 | 25500 | 0.000467 | 
B5 | 2660 | 23800 | 753 | 8120 | 0.00145 | 
B6 | 4560 | 54600 | 4060 | 32800 | 0.000271 | 
B7 | 3160 | 33800 | 1830 | 17200 | 0.001 | 
B8 | 11600 | 69800 | 4940 | 31300 | 0.00215 | 
B9 | 1300 | 36700 | 458 | 6300 | 0.00174 | 
B10 | 950 | 11100 | 1910 | 15200 | 0.0013 | 
B11 | 3020 | 7210 | 2340 | 4640 | 4.01e-05 | 
B12 | 5380 | 15900 | 3230 | 9640 | 0.000122 | 
B13 | 4480 | 20200 | 2960 | 11900 | 0.000155 | 
B14 | 3720 | 16800 | 2080 | 8240 | 0.00136 | 
B15 | 23500 | 53000 | 6850 | 29000 | 0.000235 | 
B16 | 4570 | 31600 | 3230 | 10600 | 8.21e-05 | 
B17 | 4430 | 24900 | 3310 | 14800 | 0.00014 | 
B18 |  |  |  |  |  | 0.000152
B19 |  |  |  |  |  | 0.0226
B20 |  |  |  |  |  | 0.00134
B21 |  |  |  |  |  | 0.00066
B22 |  |  |  |  |  | 0.000443
B23 | 1900 | 17200 | 2870 | 20000 | 0.000311 | 
B24 | 436 | 19600 | 953 | 18000 | 0.000375 | 
B25 | 1880 | 24000 | 644 | 8000 | 0.00115 | 
B26 | 2960 | 36600 | 1320 | 18500 | 0.000786 | 
B27 | 2040 | 43200 | 2600 | 24100 | 0.000216 | 
B28 | 1020 | 16100 | 2660 | 18800 | 0.000165 | 
B29 | 383 | 489 | 318 | 1280 | 0.00367 | 
